Laboratory results reported in patent US12099068B2, “Biomarkers for graft-versus-host disease” (Incyte Corporation, priority 2018, dated 2024).

B1: SDC4 (protein, UniProt P31431 19-198, looked up)
Syndecan-4: ESIRETEVIDPQDLLEGRYFSGALPDDEDVVGPGQESDDFELSGSGDLDDLEDSMIGPEVVHPLVPLDNHIPERAGSGSQVPTEPKKLEENEVIPKRISPVEESEDVSNKVSMSSTVQGSNIFERTEVLAALIVGGIVGILFAVFLILLLMYRMKKKDEGSYDLGKKPIYKKAPTNEFYA
B2: CD69 (protein, UniProt Q07108 1-199, looked up)
Early activation antigen CD69: MSSENCFVAENSSLHPESGQENDATSPHFSTRHEGSFQVPVLCAVMNVVFITILIIALIALSVGQYNCPGQYTFSMPSDSHVSSCSEDWVGYQRKCYFISTVKRSWTSAQNACSEHGATLAVIDSEKDMNFLKRYAGREEHWVGLKKEPGHPWKWSNGKEFNNWFNVTGSDKCVFLKNTEVSSMECEKNLYWICNKPYK
B3: PAR-1 (protein, UniProt P25116 42-425, looked up)
Proteinase-activated receptor …: SFLLRNPNDKYEPFWEDEEKNESGLTEYRLVSINKSSPLQKQLPAFISEDASGYLTSSWLTLFVPSVYTGVFVVSLPLNIMAIVVFILKMKVKKPAVVYMLHLATADVLFVSVLPFKISYYFSGSDWQFGSELCRFVTAAFYCNMYASILLMTVISIDRFLAVVYPMQSLSWRTLGRASFTCLAIWALAIAGVVPLLLKEQTIQVPGLNITTCHDVLNETLLEGYYAYYFSAFSAVFFFVPLIISTVCYVSIIRCLSSSAVANRSKKSRALFLSAAVFCIFIICFGPTNVLLIAHYSFLSHTSTTEAAYFAYLLCVCVSSISCCIDPLIYYYASSECQRYVYSILCCKESSDPSSYNSSGQLMASKMDTCSSNLNNSIYKKLLT
B4: BCR (protein, UniProt P11274 1-1271, looked up)
Breakpoint cluster region …: MVDPVGFAEAWKAQFPDSEPPRMELRSVGDIEQELERCKASIRRLEQEVNQERFRMIYLQTLLAKEKKSYDRQRWGFRRAAQAPDGASEPRASASRPQPAPADGADPPPAEEPEARPDGEGSPGKARPGTARRPGAAASGERDDRGPPASVAALRSNFERIRKGHGQPGADAEKPFYVNVEFHHERGLVKVNDKEVSDRISSLGSQAMQMERKKSQHGAGSSVGDASRPPYRGRSSESSCGVDGDYEDAELNPRFLKDNLIDANGGSRPPWPPLEYQPYQSIYVGGMMEGEGKGPLLRSQSTSEQEKRLTWPRRSYSPRSFEDCGGGYTPDCSSNENLTSSEEDFSSGQSSRVSPSPTTYRMFRDKSRSPSQNSQQSFDSSSPPTPQCHKRHRHCPVVVSEATIVGVRKTGQIWPNDGEGAFHGDADGSFGTPPGYGCAADRAEEQRRHQDGLPYIDDSPSSSPHLSSKGRGSRDALVSGALESTKASELDLEKGLEMRKWVLSGILASEETYLSHLEALLLPMKPLKAAATTSQPVLTSQQIETIFFKVPELYEIHKEFYDGLFPRVQQWSHQQRVGDLFQKLASQLGVYRAFVDNYGVAMEMAEKCCQANAQFAEISENLRARSNKDAKDPTTKNSLETLLYKPVDRVTRSTLVLHDLLKHTPASHPDHPLLQDALRISQNFLSSINEEITPRRQSMTVKKGEHRQLLKDSFMVELVEGARKLRHVFLFTDLLLCTKLKKQSGGKTQQYDCKWYIPLTDLSFQMVDELEAVPNIPLVPDEELDALKIKISQIKNDIQREKRANKGSKATERLKKKLSEQESLLLLMSPSMAFRVHSRNGKSYTFLISSDYERAEWRENIREQQKKCFRSFSLTSVELQMLTNSCVKLQTVHSIPLTINKEDDESPGLYGFLNVIVHSATGFKQSSNLYCTLEVDSFGYFVNKAKTRVYRDTAEPNWNEEFEIELEGSQTLRILCYEKCYNKTKIPKEDGESTDRLMGKGQVQLDPQALQDRDWQRTVIAMNGIEVKLSVKFNSREFSLKRMPSRKQTGVFGVKIAVVTKRERSKVPYIVRQCVEEIERRGMEEVGIYRVSGVATDIQALKAAFDVNNKDVSVMMSEMDVNAIAGTLKLYFRELPEPLFTDEFYPNFAEGIALSDPVAKESCMLNLLLSLPEANLLTFLFLLDHLKRVAEKEAVNKMSLHNLATVFGPTLLRPSEKESKLPANPSQPITMTDSWSLEVMSQVQVLLYFLQLEAIPAPDSKRQSILFSTEV
B5: WASF1 (protein, UniProt Q92558 1-559, looked up)
Actin-binding protein WASF1: MPLVKRNIDPRHLCHTALPRGIKNELECVTNISLANIIRQLSSLSKYAEDIFGELFNEAHSFSFRVNSLQERVDRLSVSVTQLDPKEEELSLQDITMRKAFRSSTIQDQQLFDRKTLPIPLQETYDVCEQPPPLNILTPYRDDGKEGLKFYTNPSYFFDLWKEKMLQDTEDKRKEKRKQKQKNLDRPHEPEKVPRAPHDRRREWQKLAQGPELAEDDANLLHKHIEVANGPASHFETRPQTYVDHMDGSYSLSALPFSQMSELLTRAEERVLVRPHEPPPPPPMHGAGDAKPIPTCISSATGLIENRPQSPATGRTPVFVSPTPPPPPPPLPSALSTSSLRASMTSTPPPPVPPPPPPPATALQAPAVPPPPAPLQIAPGVLHPAPPPIAPPLVQPSPPVARAAPVCETVPVHPLPQGEVQGLPPPPPPPPLPPPGIRPSSPVTVTALAHPPSGLHPTPSTAPGPHVPLMPPSPPSQVIPASEPKRHPSTLPVISDARSVLLEAIRKGIQLRKVEEQREQEAKHERIENDVATILSRRIAVEYSDSEDDSEFDEVDWLE
B6: SH2D1A (protein, UniProt O60880 1-128, looked up)
SH2 domain-containing protein …: MDAVAVYHGKISRETGEKLLLATGLDGSYLLRDSESVPGVYCLCVLYHGYIYTYRVSQTETGSWSAETAPGVHKRYFRKIKNLISAFQKPDQGIVIPLQYPVEKKSSARSTQGTTGIREDPDVCLKAP
B7: CCL25 (protein, UniProt O15444 24-150, looked up)
C-C motif chemokine 25: QGVFEDCCLAYHYPIGWAVLRRAWTYRIQEVSGSCNLPAAIFYLPKRHRKVCGNPKSREVQRAMKLLDARNKVFAKLHHNTQTFQAGPHAVKKLSSGNSKLSSSKFSNPISSSKRNVSLLISANSGL
B8: FR-gamma (protein, UniProt P41439 23-245, looked up)
Folate receptor gamma: QPRSARARTDLLNVCMNAKHHKTQPSPEDELYGQCSPWKKNACCTASTSQELHKDTSRLYNFNWDHCGKMEPTCKRHFIQDSCLYECSPNLGPWIRQVNQSWRKERILNVPLCKEDCERWWEDCRTSYTCKSNWHKGWNWTSGINECPAGALCSTFESYFPTPAALCEGLWSHSFKVSNYSRGSGRCIQMWFDSAQGNPNEEVAKFYAAAMNAGAPSRGIIDS
B9: WAS (protein, UniProt P42768 2-502, looked up)
Actin nucleation-promoting …: SGGPMGGRPGGRGAPAVQQNIPSTLLQDHENQRLFEMLGRKCLTLATAVVQLYLALPPGAEHWTKEHCGAVCFVKDNPQKSYFIRLYGLQAGRLLWEQELYSQLVYSTPTPFFHTFAGDDCQAGLNFADEDEAQAFRALVQEKIQKRNQRQSGDRRQLPPPPTPANEERRGGLPPLPLHPGGDQGGPPVGPLSLGLATVDIQNPDITSSRYRGLPAPGPSPADKKRSGKKKISKADIGAPSGFKHVSHVGWDPQNGFDVNNLDPDLRSLFSRAGISEAQLTDAETSKLIYDFIEDQGGLEAVRQEMRRQEPLPPPPPPSRGGNQLPRPPIVGGNKGRSGPLPPVPLGIAPPPPTPRGPPPPGRGGPPPPPPPATGRSGPLPPPPPGAGGPPMPPPPPPPPPPPSSGNGPAPPPLPPALVPAGGLAPGGGRGALLDQIRQGIQLNKTPGAPESSALQPPPQSSEGLVGALMHVMQKRSRAIHSSDEGEDQAGDEDEDDEWDD
B10: AZU1 (protein, UniProt P20160 27-248, looked up)
Azurocidin: IVGGRKARPRQFPFLASIQNQGRHFCGGALIHARFVMTAASCFQSQNPGVSTVVLGAYDLRRRERQSRQTFSISSMSENGYDPQQNLNDLMLLQLDREANLTSSVTILPLPLQNATVEAGTRCQVAGWGSQRSGGRLSRFPRFVNVTVTPEDQCRPNNVCTGVLTRRGGICNGDGGTPLVCEGLAHGVASFSLGPCGRGPDFFTRVALFRDWIDGVLNNPGP
B11: COMT (protein, UniProt P21964 1-271, looked up)
Catechol O-methyltransferase: MPEAPPLLLAAVLLGLVLLVVLLLLLRHWGWGLCLIGWNEFILQPIHNLLMGDTKEQRILNHVLQHAEPGNAQSVLEAIDTYCEQKEWAMNVGDKKGKIVDAVIQEHQPSVLLELGAYCGYSAVRMARLLSPGARLITIEINPDCAAITQRMVDFAGVKDKVTLVVGASQDIIPQLKKKYDVDTLDMVFLDHWKDRYLPDTLLLEECGLLRKGTVLLADNVICPGAPDFLAHVRGSSCFECTHYQSFLEYREVVDGLEKAIYKGPGSEAGP
B12: RNASE3 (protein, UniProt P12724 28-160, looked up)
Eosinophil cationic protein: RPPQFTRAQWFAIQHISLNPPRCTIAMRAINNYRWRCKNQNTFLRTTFANVVNVCGNQSIRCPHNRTLNNCHRSRFRVPLLHCDLINPGAQNISNCTYADRPGRRFYVVACDNRDPRDSPRYPVVPVHLDTTI
B13: ADAM 8 (protein, UniProt P78325 17-824, looked up)
Disintegrin and …: IAPSRPWALMEQYEVVLPWRLPGPRVRRALPSHLGLHPERVSYVLGATGHNFTLHLRKNRDLLGSGYTETYTAANGSEVTEQPRGQDHCFYQGHVEGYPDSAASLSTCAGLRGFFQVGSDLHLIEPLDEGGEGGRHAVYQAEHLLQTAGTCGVSDDSLGSLLGPRTAAVFRPRPGDSLPSRETRYVELYVVVDNAEFQMLGSEAAVRHRVLEVVNHVDKLYQKLNFRVVLVGLEIWNSQDRFHVSPDPSVTLENLLTWQARQRTRRHLHDNVQLITGVDFTGTTVGFARVSAMCSHSSGAVNQDHSKNPVGVACTMAHEMGHNLGMDHDENVQGCRCQERFEAGRCIMAGSIGSSFPRMFSDCSQAYLESFLERPQSVCLANAPDLSHLVGGPVCGNLFVERGEQCDCGPPEDCRNRCCNSTTCQLAEGAQCAHGTCCQECKVKPAGELCRPKKDMCDLEEFCDGRHPECPEDAFQENGTPCSGGYCYNGACPTLAQQCQAFWGPGGQAAEESCFSYDILPGCKASRYRADMCGVLQCKGGQQPLGRAICIVDVCHALTTEDGTAYEPVPEGTRCGPEKVCWKGRCQDLHVYRSSNCSAQCHNHGVCNHKQECHCHAGWAPPHCAKLLTEVHAASGSLPVFVVVVLVLLAVVLVTLAGIIVYRKARSRILSRNVAPKTTMGRSNPLFHQAASRVPAKGGAPAPSRGPQELVPTTHPGQPARHPASSVALKRPPPAPPVTVSSPPFPVPVYTRQAPKQVIKPTFAPPVPPVKPGAGAANPGPAEGAVGPKVALKPPIQRKQGAGAPTAP
B14: RETN (protein, UniProt Q9HD89 19-108, looked up)
Resistin: KTLCSMEEAINERIQEVAGSLIFRAISSIGLECQSVTSRGDLATCPRGFAVTGCTCGSACGSWDVRAETTCHCQCAGMDWTGARCCRVQP

tested on: plasma proteins; experiment: Plasma proteins modulated between baseline and day 28 in responders (CR, VGPR, PR; n = 19), Example 6 (Table 13); format: in vivo, human; details: plasma protein (OLINK NPX); responders (CR, VGPR, PR; n = 19); itacitinib 200 mg or 300 mg QD with corticosteroids; day 28 vs baseline
Procedure, shortened: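 Longitudinal comparison, day 28 versus baseline, with steroid-naive (N=10) and steroid-refractory (N=18) patients combined. Proteins measured by OLINK proximity extension, log2 normalized protein expression. Differences tested by t tests, ANOVA, Pearson correlation, P<0.05 significant.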

Question: For B1, which “Fold Change, Decreased Expression from Baseline to Day 28” value (“Fold Change, Decreased Expression” for short) is on record?
Answer: The value was −1.4678.

Question: For B2, which “Fold Change, Decreased Expression” value is on record?
Answer: Its value is −1.7621.

Question: How did the “Fold Change, Decreased Expression” value turn out when B3 was run?
Answer: The value was −1.2074.

Question: How did the “Fold Change, Decreased Expression” value turn out when B4 was run?
Answer: The value was −1.8219.

Question: With B5 as the molecule, how does the “Fold Change, Decreased Expression” value read?
Answer: The value was −1.5354.

Question: For B6, which “Fold Change, Decreased Expression” value is on record?
Answer: Its value is −1.1574.

Question: B7 was tested. Which “Fold Change, Increased Expression from Baseline to Day 28” value did it give?
Answer: Its value is 2.106.

Question: With B8 as the molecule, how does the “Fold Change, Decreased Expression” value read?
Answer: The value was −1.2115.

Question: With B9 as the molecule, how does the “Fold Change, Decreased Expression” value read?
Answer: The value was −2.133.

Question: For B10, which “Fold Change, Decreased Expression” value is on record?
Answer: The value was −2.0976.

Question: B11 was tested. Which “Fold Change, Decreased Expression” value did it give?
Answer: The value was −1.4304.

Question: How did the “Fold Change, Decreased Expression” value turn out when B12 was run?
Answer: Its value is −2.6612.

Question: With B13 as the molecule, how does the “Fold Change, Decreased Expression” value read?
Answer: Its value is −1.3896.

Question: B14 was tested. Which “Fold Change, Decreased Expression” value did it give?
Answer: Its value is −1.8687.
